Results on 2 variants are retold here after IntAct's records for PubMed 29467281.

B1: Unconventional myosin-VI (Homo sapiens), Q9UM54-1 (parent)
chain: MEDGKPVWAPHPTDGFQMGNIVDIGPDSLTIEPLNQKGKTFLALINQVFPAEEDSKKDVEDNCSLMYLNEATLLHNIKVRYSKDRIYTYVANILIAVNPYFDIPKIYSSEAIKSYQGKSLGTRPPHVFAIADKAFRDMKVLKMSQSIIVSGESGAGKTENTKFVLRYLTESYGTGQDIDDRIVEANPLLEAFGNAKTVRNNNSSRFGKFVEIHFNEKSSVVGGFVSHYLLEKSRICVQGKEERNYHIFYRLCAGASEDIREKLHLSSPDNFRYLNRGCTRYFANKETDKQILQNRKSPEYLKAGSMKDPLLDDHGDFIRMCTAMKKIGLDDEEKLDLFRVVAGVLHLGNIDFEEAGSTSGGCNLKNKSAQSLEYCAELLGLDQDDLRVSLTTRVMLTTAGGTKGTVIKVPLKVEQANNARDALAKTVYSHLFDHVVNRVNQCFPFETSSYFIGVLDIAGFEYFEHNSFEQFCINYCNEKLQQFFNERILKEEQELYQKEGLGVNEVHYVDNQDCIDLIEAKLVGILDILDEENRLPQPSDQHFTSAVHQKHKDHFRLTIPRKSKLAVHRNIRDDEGFIIRHFAGAVCYETTQFVEKNNDALHMSLESLICESRDKFIRELFESSTNNNKDTKQKAGKLSFISVGNKFKTQLNLLLDKLRSTGASFIRCIKPNLKMTSHHFEGAQILSQLQCSGMVSVLDLMQGGYPSRASFHELYNMYKKYMPDKLARLDPRLFCKALFKALGLNENDYKFGLTKVFFRPGKFAEFDQIMKSDPDHLAELVKRVNHWLTCSRWKKVQWCSLSVIKLKNKIKYRAEACIKMQKTIRMWLCKRRHKPRIDGLVKVGTLKKRLDKFNEVVSVLKDGKPEMNKQIKNLEISIDTLMAKIKSTMMTQEQIQKEYDALVKSSEELLSALQKKKQQEEEAERLRRIQEEMEKERKRREEDEKRRRKEEEERRMKLEMEAKRKQEEEERKKREDDEKRIQAEVEAQLARQKEEESQQQAVLEQERRDRELALRIAQSEAELISDEAQADLALRRNDGTRPKMTPEQMAKEMSEFLSRGPAVLATKAAAGTKKYDLSKWKYAELRDTINTSCDIELLAACREEFHRRLKVYHAWKSKNKKRNTETEQRAPKSVTDYDFAPFLNNSPQQNPAAQIPARQREIEMNRQQRFFRIPFIRPADQYKDPQSKKKGWWYAHFDGPWIARQMELHPDKPPILLVAGKDDMEMCELNLEETGLTRKRGAEILPRQFEEIWERCGGIQYLQNAIESRQARPTYATAMLQSLLK
partner: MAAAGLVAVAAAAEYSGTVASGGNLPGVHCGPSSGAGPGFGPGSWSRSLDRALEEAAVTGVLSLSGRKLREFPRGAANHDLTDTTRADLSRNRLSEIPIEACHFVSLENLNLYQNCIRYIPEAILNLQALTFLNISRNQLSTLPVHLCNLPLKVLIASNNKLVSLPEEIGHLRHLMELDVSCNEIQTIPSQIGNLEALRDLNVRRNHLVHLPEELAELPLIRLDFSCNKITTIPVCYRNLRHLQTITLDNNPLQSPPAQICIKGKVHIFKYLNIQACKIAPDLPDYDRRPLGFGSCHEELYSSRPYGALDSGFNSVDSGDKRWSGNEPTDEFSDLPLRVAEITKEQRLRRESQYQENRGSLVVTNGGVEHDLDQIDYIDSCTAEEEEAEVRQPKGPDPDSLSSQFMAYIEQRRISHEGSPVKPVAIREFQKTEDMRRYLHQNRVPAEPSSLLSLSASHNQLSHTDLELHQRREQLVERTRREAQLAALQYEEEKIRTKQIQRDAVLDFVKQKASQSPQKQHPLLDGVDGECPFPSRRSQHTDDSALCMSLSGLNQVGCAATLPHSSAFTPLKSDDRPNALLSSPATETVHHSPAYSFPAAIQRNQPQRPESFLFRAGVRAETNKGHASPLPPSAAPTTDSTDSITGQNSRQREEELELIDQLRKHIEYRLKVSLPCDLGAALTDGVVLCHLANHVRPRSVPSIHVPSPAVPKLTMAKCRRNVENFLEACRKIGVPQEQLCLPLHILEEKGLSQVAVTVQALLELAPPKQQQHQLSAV

The assay covers variants of B1. The note with it: with lrch3_human LRCH3, Q96II8.
With R1107A;R1108A;L1109A, the “effect of a mutation on the interaction” value is on record as “disrupting interaction strength”.
As for W1192L, the “effect of a mutation on the interaction” value was “disrupting interaction strength”.
